Laboratory results taken from patent US20130195884A1, “NOVEL MODULATORS OF TRAIL SIGNALLING” (Deutsches Krebsforschungszentrum, priority 2009, published 2013).

Columns and labels:
[1] = test system: freshly isolated human hepatocytes; settings: cited from earlier work
[2] = test system: low-grade Non-Hodgkin Lymphoma (NHL); settings: combination with rituximab, phase Ib, cited from earlier work
[3] = cited from earlier work
HeLa cells = test: Titration of TRAIL-induced apoptosis, cell viability by ATP quantification (CellTiterGlo); format: cell-based, human
Experimental: FIG. 2: Titration curve for TRAIL-induced apoptosis. HeLa cells were stimulated with 0.001 to 1000 ng/ml TRAIL, followed by analysis of cell viability by the quantification of ATP (CelliterGlo® assay).
FIG. 5. TRAIL-induced cell death in HeLa cells can be rescued by siRNAs. (A) TRAIL induces apoptosis in HeLa cells. Membrane blebbing was observed after 1-2 hours and a complete loss of viable cells was detected after 24 hours. (B) The killing activity of TRAIL in HeLa cells is concentration dependent. (C) Silencing the TRAIL-R1 receptor and caspase-8 with siRNAs, rescued the apoptotic effect to 70% and 100% viability of untreated cells, respectively.
Cell viability was quantified by the measurement of ATP (CeIlTiterGlo® Luminescent Cell Viability Assay) or the quantification of mitochondrial activity (MTT assay). CellTiterGlo® Luminescent Cell Viability Assay was performed according to manufacturer's instructions. Briefly, 24 h after TRAIL treatment, CellTiterGlo® reagent was added to the medium. After mixing and shaking for 2 min, the luminescent signal was measured using Mithras LB 940 (Berthold Technologies, Bad Wildbad, Germany).
To determine the exact sensitivity to TRAIL-induced apoptosis, a dose-response curve ranging from 0.01 to 1000 ng/ml TRAIL was performed. Cell viability was quantified 24 h later by the CellTiterGlo® assay as this method is very sensitive, reproducible and applicable for high-throughput approaches. […] Maximum cell death is reached at TRAIL concentrations around 100 ng/ml (cf. FIG. 2).
The death-inducing ligand TRAIL triggers apoptosis in HeLa cells shortly after application (FIG. 5 A). During this process, the cytoplasm shrinks, the DNA condensates and the cell membrane starts blebbing, releasing fragments of the cell in a controlled manner (reviewed in Yasuhara 2007). […] This process was also monitored with a cell-based viability assay, quantifying cellular ATP-levels. TRAIL induced cell death in HeLa cells in a dose-dependant manner (FIG. 5 B).

For “HIS-TRAIL: soluble TRAIL with an N-terminal polyhistidine tag”, the “Toxicity on freshly isolated human hepatocytes” value [1] is given as “considerable toxicity”.

In the case of “rhApo2L/TRAIL: untagged version of recombinant soluble TRAIL, co-developed by Genentech and Amgen”, the “Serious adverse events of the combination” value [2] is listed as “two SAEs possibly related to the combination”, the Tumor response assessment ([2]; eight patients with low-grade NHL) is listed as “two showed complete response, one a partial response and five stable disease” and the “Toxicity in patients receiving the single agent” value [3] is listed as “no dose-limiting toxicity (DLT) or severe adverse effects (SAEs)”.

B1: TRAIL: death-inducing ligand, recombinant TRAIL used to trigger apoptosis in HeLa cells (protein, UniProt P50591 1-281, looked up)
Tumor necrosis factor ligand …: MAMMEVQGGPSLGQTCVLIVIFTVLLQSLCVAVTYVYFTNELKQMQDKYSKSGIACFLKEDDSYWDPNDEESMNSPCWQVKWQLRQLVRKMILRTSEETISTVQEKQQNISPLVRERGPQRVAAHITGTRGRSNTLSSPNSKNEKALGRKINSWESSRSGHSFLSNLHLRNGELVIHEKGFYYIYSQTYFRFQEEIKENTKNDKQMVQYIYKYTSYPDPILLMKSARNSCWSKDAEYGLYSIYQGGIFELKENDRIFVSVTNEHLIDMDHEASFFGAFLVG
For B1, the “Membrane blebbing observed after” value (HeLa cells; HeLa cells after addition of TRAIL) was 1 to 2 h, the “Viable cells left after TRAIL treatment” value (HeLa cells; HeLa cells, 100 ng/ml recombinant TRAIL, 24 hours) was “no viable cells were left” and the “TRAIL concentration at which maximum cell death is reached” value (HeLa cells; HeLa cells, dose-response 0.01 to 1000 ng/ml TRAIL, viability after 24 h, CellTiterGlo) was “around 100 ng/ml”.
